Laboratory results as given in patent US6531296B1, “Nuclear tyrosine kinase Rak” (The University of North Carolina at Chapel Hill, priority 1995, dated 2003).
Where two headings read alike, the source gives them in different places.

T1: pRb (Homo sapiens, UniProt P06400)
T1 construct: incubated with cell lysates from SK-BR-3 breast cancer cells; endogenous in cells; host or cells: SK-BR-3
T1 sequence (P06400 1-928): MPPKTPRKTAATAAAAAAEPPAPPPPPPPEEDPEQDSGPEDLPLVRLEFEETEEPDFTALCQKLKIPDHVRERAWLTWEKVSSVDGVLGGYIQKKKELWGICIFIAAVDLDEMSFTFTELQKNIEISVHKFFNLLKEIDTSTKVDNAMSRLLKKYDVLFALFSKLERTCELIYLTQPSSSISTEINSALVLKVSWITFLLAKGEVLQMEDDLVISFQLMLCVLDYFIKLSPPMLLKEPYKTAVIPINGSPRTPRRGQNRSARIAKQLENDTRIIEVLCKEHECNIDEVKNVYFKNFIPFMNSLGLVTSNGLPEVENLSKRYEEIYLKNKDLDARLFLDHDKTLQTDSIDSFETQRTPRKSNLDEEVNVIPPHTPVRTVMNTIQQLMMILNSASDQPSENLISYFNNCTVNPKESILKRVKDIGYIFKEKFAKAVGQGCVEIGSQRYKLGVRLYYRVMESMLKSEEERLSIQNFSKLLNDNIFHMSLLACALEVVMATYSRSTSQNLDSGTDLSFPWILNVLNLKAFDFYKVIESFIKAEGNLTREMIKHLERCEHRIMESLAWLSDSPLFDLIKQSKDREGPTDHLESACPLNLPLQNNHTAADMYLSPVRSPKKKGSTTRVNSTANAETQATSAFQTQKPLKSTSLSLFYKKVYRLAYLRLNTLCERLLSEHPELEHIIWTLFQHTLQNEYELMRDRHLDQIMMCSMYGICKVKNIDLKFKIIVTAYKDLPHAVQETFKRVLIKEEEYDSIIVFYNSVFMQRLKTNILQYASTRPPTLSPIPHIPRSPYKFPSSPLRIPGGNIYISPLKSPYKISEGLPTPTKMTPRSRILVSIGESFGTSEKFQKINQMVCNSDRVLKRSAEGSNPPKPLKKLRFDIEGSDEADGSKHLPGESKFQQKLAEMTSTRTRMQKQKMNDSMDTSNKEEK

B1: Rak-NT:GST: first 110 amino acids of Rak (SEQ ID NO:2) as bacterial fusion protein with Glutathione-S transferase (protein)
chain: MSNICQRLWEYLEPYLPCLSTEADKSTVIENPGALCSPQSQRHGHYFVALFDYQARTAEDLSFRAGDKLQVLDTLHEGWWFARHLEKRRDGSSQQLQGYIPSNYVAEDRS
modifications: left off: a dimerising Fc or GST; large carriers; small tags and cut ends
B2: RAKΔ86:GST: RakNT GST fusion protein with amino acids 86-110 (CDC2 binding site) deleted (protein, UniProt P42685 1-85, looked up, fragment)
chain: MSNICQRLWEYLEPYLPCLSTEADKSTVIENPGALCSPQSQRHGHYFVALFDYQARTAEDLSFRAGDKLQVLDTLHEGWWFARHL
modifications: GST fusion

Columns and labels:
[1] = target: T1, pRb; experiment: Affinity precipitation from SK-BR-3 lysate with GST-RakNT, Western blot for pRb; format: binding; settings: SK-BR-3 cell lysate, GST alone as control
Description: Affinity Precipitations. DNA fragments encoding the amino terminal region of Rak were prepared using the polymerase chain reaction with Pyrococcus furiosus DNA polymerase (Stratagene), and cloned into the pGEX-4T plasmid (Pharmacia). Rb fusion proteins encoding amino acids 379-928 (RbABC, containing the A/B pocket region and the COOH-terminal domain) and 780-928 (RbC for COOH terminal domain only), were prepared similarly. The GST fusion proteins were induced and purified according to the manufacturer's instructions, and were analyzed by SDS-PAGE to ensure that an equal amount of protein was used for the affinity precipitation procedure.
For affinity precipitations, 250 ug of cell lysate was pre-cleared once with 25 ul of glutathione-sepharose beads (Pharmacia) then once with 25 ul of the same beads containing 2 ug/ml Glutathione S-transferase. […]
Results and Discussion: To test whether Rak and pRb physically interact, the first 110 amino acids of Rak (first 110 amino acids of SEQ ID NO:2), where the predicted interacting peptides reside were prepared as a bacterial fusion protein with the Glutathione-S transferase gene (Rak-NT:GST), and incubated with cell lysates from SK-BR-3 breast cancer cells, and bound proteins were analyzed by Western blotting. […]

[2] = target: T2, Cdk4 (Homo sapiens, UniProt P11802); experiment: Affinity precipitation from BT474 lysate with Rak N-terminal GST fusion protein; format: binding; settings: BT474 cell lysate
T2 construct: endogenous in cells; host or cells: BT474
Description: (§1) For affinity precipitations, 250 ug of cell lysate was pre-cleared once with 25 ul of glutathione-sepharose beads (Pharmacia) then once with 25 ul of the same beads containing 2 ug/ml Glutathione S-transferase. The lysate was then incubated with 25 ul of GST-RakNT bound to glutathione-sepharose, in a total volume of 500 ul of NP-40 lysis buffer, for 3 hours at 4° C. The beads were then washed three times in NP-40 Lysis Buffer and the bound proteins were eluted with SDS-PAGE sample loading buffer. pRb binding was assessed by Western blot analysis with the G3-245 antibody at 1 ug/ml.
(§2) Because the N-terminus is frequently responsible for protein-protein interactions in Src-related kinases, the proteins that bind to this region were characterized. The N-terminal 110 amino acids of Rak were expressed as a bacterial fusion protein with Glutathione S-transferase, and were incubated with cell lysates from BT474 breast cancer cells. In this assay, binding of RAK to the cyclin-dependent kinases Cdc2 and Cdk4 was detected, but binding to Cdk5, Cdk6, or Cdk7 was not detected (data not shown).

[3] = target: T3, Cdk5 (Homo sapiens, UniProt Q00535); experiment: as above; format: binding; settings: BT474 cell lysate
T3 construct: endogenous in cells; host or cells: BT474
Description: as §1, §2

[4] = target: T4, Cdk6 (Homo sapiens, UniProt Q00534); experiment: as above; format: binding; settings: BT474 cell lysate
T4 construct: endogenous in cells; host or cells: BT474
Description: as §1, §2

[5] = target: T5, Cdk7 (Homo sapiens, UniProt P50613); experiment: as above; format: binding; settings: BT474 cell lysate
T5 construct: endogenous in cells; host or cells: BT474
Description: as §1, §2

[6] = target: T6, GAP-associated p62 (Homo sapiens, UniProt Q07666); experiment: Affinity precipitation from SK-BR-3 lysate with GST-RakNT; format: binding; settings: SK-BR-3 cell lysate
T6 construct: incubated with cell lysates from SK-BR-3 breast cancer cells; endogenous in cells; host or cells: SK-BR-3
Description: as §1
(§3) Results and Discussion: To test whether Rak and pRb physically interact, the first 110 amino acids of Rak (first 110 amino acids of SEQ ID NO:2), where the predicted interacting peptides reside were prepared as a bacterial fusion protein with the Glutathione-S transferase gene (Rak-NT:GST), and incubated with cell lysates from SK-BR-3 breast cancer cells, and bound proteins were analyzed by Western blotting. Glutathione-S transferase alone was used as the control. […] In contrast, binding of Rak to proteins that interact with the SH3 domains of other members of the Src family, such as GAP-associated p62 or Shc, was not found (data not shown).

[7] = system: Shc; experiment: as above; format: binding, human; settings: SK-BR-3 cell lysate
Description: as §1, §3

[8] = target: T7, CDC2 (Homo sapiens, UniProt P06493); experiment: Affinity precipitation from BT474 lysate with Rak N-terminal GST fusion protein; format: binding; set-up: endogenous in cells; host or cells: BT474; settings: BT474 cell lysate
Description: as §1, §2

[9] = target: T7, CDC2; experiment: In vitro kinase assay of immunoprecipitated CDC2 with Histone H1 as exogenous substrate; format: biochemical; set-up: incubated with immunoprecipitated CDC2; endogenous in cells
Description: The 110 N-terminal amino acids of Rak were produced as a GST fusion protein (RAKNT:GST) and incubated with immunoprecipitated CDC2, and subjected to an in vitro kinase assay with Histone H1 added as an exogenous substrate, and analyzed by SDS-PAGE. […] This fusion protein was incubated with immunoprecipitated CDC2, and subjected to an in vitro kinase assay with Histone H1 added as an exogenous substrate, and analyzed by SDS-PAGE.
The CDC2 binding domain of RAK appears to be between amino acids 86-110. Since the binding of RAK to CDC2 is exceptionally strong, the biological function of this interaction was explored.

T7 sequence (P06493 whole entry, the tested form may be a part): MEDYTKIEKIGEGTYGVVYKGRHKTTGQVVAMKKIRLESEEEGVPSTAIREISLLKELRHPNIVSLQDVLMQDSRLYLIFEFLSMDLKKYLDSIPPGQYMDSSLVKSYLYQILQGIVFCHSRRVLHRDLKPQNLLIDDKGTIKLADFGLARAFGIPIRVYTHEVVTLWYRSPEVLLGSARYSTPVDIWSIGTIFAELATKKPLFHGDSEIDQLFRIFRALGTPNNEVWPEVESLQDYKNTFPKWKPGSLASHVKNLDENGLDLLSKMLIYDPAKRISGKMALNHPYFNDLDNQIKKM
T2 sequence (P11802 whole entry, the tested form may be a part): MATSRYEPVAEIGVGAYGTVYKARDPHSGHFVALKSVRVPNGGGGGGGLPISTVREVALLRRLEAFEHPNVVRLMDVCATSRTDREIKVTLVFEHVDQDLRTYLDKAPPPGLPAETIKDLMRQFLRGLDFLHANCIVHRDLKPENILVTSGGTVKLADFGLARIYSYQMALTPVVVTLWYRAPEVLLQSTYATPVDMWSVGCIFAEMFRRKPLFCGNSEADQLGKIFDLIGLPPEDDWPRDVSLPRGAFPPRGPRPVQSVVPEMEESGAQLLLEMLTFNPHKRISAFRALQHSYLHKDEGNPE
Sequence of Shc (P29353 156-583 limits assumed): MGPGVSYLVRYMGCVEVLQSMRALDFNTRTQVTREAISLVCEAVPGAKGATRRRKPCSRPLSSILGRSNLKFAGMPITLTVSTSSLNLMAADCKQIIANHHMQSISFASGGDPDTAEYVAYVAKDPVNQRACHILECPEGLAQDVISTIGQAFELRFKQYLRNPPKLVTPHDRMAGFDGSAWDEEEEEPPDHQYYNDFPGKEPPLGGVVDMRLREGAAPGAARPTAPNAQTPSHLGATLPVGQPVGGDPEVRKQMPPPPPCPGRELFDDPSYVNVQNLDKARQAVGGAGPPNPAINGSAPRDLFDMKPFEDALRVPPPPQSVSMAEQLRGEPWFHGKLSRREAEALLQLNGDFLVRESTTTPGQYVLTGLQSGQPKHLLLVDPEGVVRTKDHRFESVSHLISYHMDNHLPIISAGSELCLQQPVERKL
T3 sequence (Q00535 whole entry): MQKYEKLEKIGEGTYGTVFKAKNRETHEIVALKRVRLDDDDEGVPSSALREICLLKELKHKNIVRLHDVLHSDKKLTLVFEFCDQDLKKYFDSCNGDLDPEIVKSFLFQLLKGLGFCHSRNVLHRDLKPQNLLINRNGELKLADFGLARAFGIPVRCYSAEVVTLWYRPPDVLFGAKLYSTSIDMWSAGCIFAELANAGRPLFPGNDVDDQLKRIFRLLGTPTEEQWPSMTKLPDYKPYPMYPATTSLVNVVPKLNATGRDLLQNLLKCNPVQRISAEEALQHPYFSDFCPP
T5 sequence (P50613 whole entry): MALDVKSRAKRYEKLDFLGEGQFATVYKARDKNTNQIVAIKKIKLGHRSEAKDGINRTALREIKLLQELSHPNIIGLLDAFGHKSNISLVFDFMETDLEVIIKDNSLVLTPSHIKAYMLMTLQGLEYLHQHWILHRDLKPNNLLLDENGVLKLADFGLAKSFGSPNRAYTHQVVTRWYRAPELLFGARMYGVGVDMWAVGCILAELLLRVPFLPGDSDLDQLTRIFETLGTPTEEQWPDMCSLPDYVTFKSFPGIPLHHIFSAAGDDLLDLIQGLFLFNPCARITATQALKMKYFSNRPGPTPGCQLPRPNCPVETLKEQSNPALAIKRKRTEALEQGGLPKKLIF
T6 sequence (Q07666 whole entry): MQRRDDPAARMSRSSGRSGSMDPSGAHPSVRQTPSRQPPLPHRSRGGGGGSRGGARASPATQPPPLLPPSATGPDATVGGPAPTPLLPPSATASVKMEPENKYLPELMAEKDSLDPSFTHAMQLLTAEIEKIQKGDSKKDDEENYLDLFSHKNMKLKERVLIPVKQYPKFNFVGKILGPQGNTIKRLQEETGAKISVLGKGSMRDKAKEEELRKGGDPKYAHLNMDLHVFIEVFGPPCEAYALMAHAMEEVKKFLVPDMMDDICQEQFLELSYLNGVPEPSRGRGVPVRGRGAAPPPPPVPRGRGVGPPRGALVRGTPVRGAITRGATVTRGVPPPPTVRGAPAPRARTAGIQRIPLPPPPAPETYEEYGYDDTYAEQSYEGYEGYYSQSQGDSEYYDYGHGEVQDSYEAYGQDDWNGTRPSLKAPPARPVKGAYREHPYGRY
T4 sequence (Q00534 whole entry): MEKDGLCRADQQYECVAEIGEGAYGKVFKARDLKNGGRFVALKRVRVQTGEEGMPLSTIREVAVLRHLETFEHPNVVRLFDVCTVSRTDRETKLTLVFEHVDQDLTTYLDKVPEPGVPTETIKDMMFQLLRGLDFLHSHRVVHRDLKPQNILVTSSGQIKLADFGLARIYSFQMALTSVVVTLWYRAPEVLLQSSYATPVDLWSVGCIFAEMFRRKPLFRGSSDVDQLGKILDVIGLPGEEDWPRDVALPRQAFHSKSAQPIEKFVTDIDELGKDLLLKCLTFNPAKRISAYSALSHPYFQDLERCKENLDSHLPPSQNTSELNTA

Molecule	pRb binding [1]	binding to Cdk4 [2]	binding to Cdk5 [3]	binding to Cdk6 [4]	binding to Cdk7 [5]	binding to GAP-associated p62 [6]	binding to Shc [7]	binding to Cdc2 [8]	inhibition of CDC2 histone H1 phosphorylation activity ([9]; listed as RAK-SH3:GST)	inhibition of CDC2 histone H1 phosphorylation activity ([9]; listed as RakNT fusion protein)	inhibition of CDC2 histone H1 phosphorylation activity [9]
B1	bound	detected	not detected	not detected	not detected	not found	not found	detected	able to block CDC2 histone H1 activity	reduction of CDC2 histone H1 phosphorylation activity	
B2		did not affect binding									greatly diminished CDC2 inhibitory activity
